T1: monkey MSLN full-length protein (NCBI: XP_028696439.1) expressed on HEK293T-monkey MSLN cells (monkey)
T1 construct: Whole encoded precursor
T1 chain: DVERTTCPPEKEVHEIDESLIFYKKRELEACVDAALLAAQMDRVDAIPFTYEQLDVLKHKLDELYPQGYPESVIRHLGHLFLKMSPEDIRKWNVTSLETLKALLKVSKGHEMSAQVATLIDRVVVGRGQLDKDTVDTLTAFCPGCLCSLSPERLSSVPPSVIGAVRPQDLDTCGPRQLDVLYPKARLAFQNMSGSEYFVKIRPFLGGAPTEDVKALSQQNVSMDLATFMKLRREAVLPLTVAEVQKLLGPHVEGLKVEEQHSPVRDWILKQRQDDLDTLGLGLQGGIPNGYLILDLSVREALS

T2: human MSLN-R1-his protein (human, UniProt Q13421 296-390)
T2 construct: also called hMSLN-R1-his; human MSLN-R1 protein; not shown: His tag
T2 chain: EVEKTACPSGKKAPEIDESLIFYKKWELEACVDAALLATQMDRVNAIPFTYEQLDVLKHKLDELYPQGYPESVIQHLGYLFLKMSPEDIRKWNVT


What was measured:
[1] = target: T3, human MSLN-R3 protein (Met487-Ser606 of NCBI AAH09272.1) expressed on HEK293T-hMSLN-R3 cells (human, UniProt Q13421 487-606); assay: FACS on HEK293T-hMSLN-R3 cells
T3 construct: also called Region3
Description: (§1) The desired cells were expanded to the logarithmic growth phase in a T-75 cell culture flask. […] After the cells from the previous step were subjected to cell counting, the cell pellet was resuspended to 2×10⁶ cells/mL in a blocking buffer of [PBS+2% (w/w) BSA] and added into a 96-well FACS reaction plate at 50 μL/well. A chimeric antibody (a sample to be tested) was added at 50 μL/well, and the plate was incubated on ice for 2 h. […] After the plate was centrifuged and washed 5 times with a PBST buffer, assay and analysis were performed by FACS (FACS CantoII, purchased from BD). Data analysis was performed by software (Flowjo) to obtain the mean fluorescence intensity (MFI) of the cells.

[2] = target: T4, human MSLN full-length protein (NCBI: AAH09272.1) expressed on HEK293T-hMSLN-B8 cells (human, UniProt Q13421 296-598); assay: FACS on HEK293T-hMSLN-B8 cells
T4 construct: Whole encoded precursor
Description: as §1

[3] = target: T5, human MSLN protein endogenously expressed on OVCAR3 tumor cells (human, UniProt Q13421 296-598); assay: FACS on OVCAR3 cells
T5 construct: whole, on cells; Endogenous target on OVCAR3 cells; kept apart from the recombinant full-length construct; also called mesothelin
Description: as §1

[4] = target: T1, monkey MSLN full-length protein (NCBI: …); assay: FACS on HEK293T-monkey MSLN cells
Description: as §1

[5] = target: T6, human MSLN-FL-his protein (human, UniProt Q13421 296-580); assay: ELISA, coated antigen; antibody 1 nM
T6 construct: also called hMSLN-FL-his; human MSLN full-length protein; not shown: His tag

[6] = target: T2, human MSLN-R1-his protein; assay: ELISA, coated antigen; antibody 1 nM
Description: (§2) The plate was sealed with a plastic film and incubated at 4° C. overnight. The next day, the plate was washed twice with PBST, and a blocking buffer [PBS+2% (w/w) BSA] was added for blocking at room temperature for 2 h. The blocking buffer was discarded, and a chimeric antibody or negative control antibody serially diluted from 100 nM was added at 50 μL/well. After incubation at 37° C. for 2 h, the plate was washed 3 times with PBST. […] After incubation at 37° C. for 2 h, the plate was washed 5 times with PBST. A TMB substrate was added at 50 μL/well for incubation at room temperature for 5-10 min, and then a stop solution (1.0 N HCl) was added at 50 μL/well.

[7] = target: T6, human MSLN-FL-his protein; assay: ELISA, coated antigen; antibody 0.001 nM
Description: as §2

[8] = target: T6, human MSLN-FL-his protein; assay: ELISA, coated antigen; antibody 10 nM
Description: as §2

[9] = target: T2, human MSLN-R1-his protein; assay: ELISA, coated antigen; antibody 10 nM
Description: as §2

[10] = target: T2, human MSLN-R1-his protein; assay: ELISA, coated antigen; antibody 100 nM
Description: as §2

[11] = target: T2, human MSLN-R1-his protein; assay: ELISA, coated antigen; antibody 0.001 nM
Description: as §2

[12] = target: T2, human MSLN-R1-his protein; assay: ELISA, coated antigen; antibody 0.01 nM
Description: as §2

[13] = target: T2, human MSLN-R1-his protein; assay: ELISA, coated antigen; no antibody (blank, column 'none')
Description: as §2

[14] = target: T6, human MSLN-FL-his protein; assay: ELISA, coated antigen; antibody 0.01 nM
Description: as §2

[15] = target: T6, human MSLN-FL-his protein; assay: ELISA, coated antigen; antibody 0.0001 nM
Description: as §2

[16] = target: T2, human MSLN-R1-his protein; assay: ELISA, coated antigen; antibody 0.1 nM
Description: as §2

[17] = target: T6, human MSLN-FL-his protein; assay: ELISA, coated antigen; antibody 100 nM
Description: as §2

[18] = target: T6, human MSLN-FL-his protein; assay: ELISA, coated antigen; antibody 0.1 nM
Description: as §2

[19] = target: T6, human MSLN-FL-his protein; assay: ELISA, coated antigen; no antibody (blank, column 'none')
Description: as §2

[20] = target: T2, human MSLN-R1-his protein; assay: ELISA, coated antigen; antibody 0.0001 nM
Description: as §2

T3 sequence (Q13421 495-614): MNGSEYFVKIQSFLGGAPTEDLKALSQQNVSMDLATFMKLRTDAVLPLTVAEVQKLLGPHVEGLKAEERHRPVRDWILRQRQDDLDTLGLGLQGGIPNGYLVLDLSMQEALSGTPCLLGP
T5 sequence (Q13421 other isoform, or with tags, fused parts or gaps): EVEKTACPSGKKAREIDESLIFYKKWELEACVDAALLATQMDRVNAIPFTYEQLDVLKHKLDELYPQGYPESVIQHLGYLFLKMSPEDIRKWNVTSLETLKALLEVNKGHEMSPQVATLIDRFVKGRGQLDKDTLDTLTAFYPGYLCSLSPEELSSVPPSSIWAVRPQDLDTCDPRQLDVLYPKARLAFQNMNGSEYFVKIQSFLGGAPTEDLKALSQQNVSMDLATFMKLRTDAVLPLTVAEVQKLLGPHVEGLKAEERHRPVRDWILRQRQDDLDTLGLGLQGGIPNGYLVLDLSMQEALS
T4 sequence (Q13421 other isoform, or with tags, fused parts or gaps limits assumed): as the sequence (Q13421 other isoform, or with tags, fused parts or gaps) above, with R14P counted along it

Row | Maximum mean fluorescence intensity [1] | binding result [1] | EC50 [2] | Maximum mean fluorescence intensity [2] | OD450 [5] | OD450 [6] | OD450 [7] | OD450 [8] | OD450 [9] | OD450 [10] | OD450 [11] | OD450 [12] | OD450 [13] | OD450 [14] | OD450 [15] | OD450 [16] | OD450 [17] | OD450 [18] | OD450 [19] | OD450 [20] | Binder | also measured
1 | 239 | no binding | ~0.86 nM | 87200 |  |  |  |  |  |  |  |  |  |  |  |  |  |  |  |  | S009-F1.2.12 (antibody, human IgG1, kappa, V domains shown, human-murine chimeric antibody, human IgG1/kappa constant regions) VH: QVQLKQTGPGLVQPSQSLSITCTVSGFSLTNYAVHWVRQSPGKGLEWLGVIWSGGATDYNTVFISRLSISKDNSKSQVFFKVNSLQVDDTAIYYCARTGSGYAMDYWGQGTSVTVSS VL: DIVLTQSPATLSVTPGDRVSLSCRTSHNVNTYLHWYQQKSHESPRLLIKYASQSISEIPSRFSGSGSGTNFTLSINSVETEDFGMYFCHQTNRWPLTFGAGTKLELKR | EC50 [3]: 1.87 nM; Maximum mean fluorescence intensity [3]: 9620; EC50 [4]: 1.39 nM; Maximum mean fluorescence intensity [4]: 29200
2 |  |  |  |  | 2.27 | 0.04 | 0.11 | 2.31 | 0.05 | 0.05 | 0.05 | 0.04 | 0.04 | 0.49 | 0.06 | 0.05 | 2.74 | 1.75 | 0.06 | 0.04 | S009-F1.2.12 human-murine chimeric antibody (antibody, human IgG1, kappa, V domains shown, Chimeric IgG1/kappa) VH: QVQLKQTGPGLVQPSQSLSITCTVSGFSLTNYAVHWVRQSPGKGLEWLGVIWSGGATDYNTVFISRLSISKDNSKSQVFFKVNSLQVDDTAIYYCARTGSGYAMDYWGQGTSVTVSS VL: DIVLTQSPATLSVTPGDRVSLSCRTSHNVNTYLHWYQQKSHESPRLLIKYASQSISEIPSRFSGSGSGTNFTLSINSVETEDFGMYFCHQTNRWPLTFGAGTKLELKR | 
3 | 680 | no binding | 2.93 nM | 109000 |  |  |  |  |  |  |  |  |  |  |  |  |  |  |  |  | S009-F1.35.24 (antibody, human IgG1, kappa, V domains shown, human-murine chimeric antibody, human IgG1/kappa constant regions) VH: EVQLQQSEPELVKPGASVRISCKASGYSFTDYYMHWVKQSPENRLEWIGEINPSTGGTSYNPKFKDKATLTVDKSSSTAYMQLKSLTSEESAVYYCTRYHYYGSSSYVMDYWGQGTSVTVSS VL: QIVLTQSPAILSASPGERVTMTCSASSSVYHMHWFQQKSGTSPKRWVYDTSKLASGVPARFSGSGSGTSYSLTISSMEAEDAATYYCQHWRTNPLTFGAGTKLELKR | EC50 [3]: 2.08 nM; Maximum mean fluorescence intensity [3]: 10500; EC50 [4]: 4.75 nM; Maximum mean fluorescence intensity [4]: 52100
4 |  |  |  |  | 2.22 | 0.04 | 0.09 | 2.27 | 0.04 | 0.06 | 0.04 | 0.04 | 0.04 | 0.41 | 0.06 | 0.04 | 2.48 | 1.62 | 0.06 | 0.04 | S009-F1.35.24 human-murine chimeric antibody (antibody, human IgG1, kappa, V domains shown, Chimeric IgG1/kappa) VH: EVQLQQSEPELVKPGASVRISCKASGYSFTDYYMHWVKQSPENRLEWIGEINPSTGGTSYNPKFKDKATLTVDKSSSTAYMQLKSLTSEESAVYYCTRYHYYGSSSYVMDYWGQGTSVTVSS VL: QIVLTQSPAILSASPGERVTMTCSASSSVYHMHWFQQKSGTSPKRWVYDTSKLASGVPARFSGSGSGTSYSLTISSMEAEDAATYYCQHWRTNPLTFGAGTKLELKR | 
5 | 239 | no binding | 3.4 nM | 70300 |  |  |  |  |  |  |  |  |  |  |  |  |  |  |  |  | S009-F1.7.14 (antibody, human IgG1, kappa, human-murine chimeric antibody, human IgG1/kappa constant regions) heavy: not shown light: QIVLTQSPAIMSASPGEKVTISCSASSSVSYMYWYQQKPGSSPKPWISRTSNLASGVPARFSGSGSGTSYSLTISSMEAEDAATYYCQQYHSYPPTLGAGTKLELKRTVAAPSVFIFPPSDEQLKSGTASVVCLLNNFYPREAKVQWKVDNALQSGNSQESVTEQDSKDSTYSLSSTLTLSKADYEKHKVYACEVTHQGLSSPVTKSFNRGEC | Maximum mean fluorescence intensity [3]: 2250; EC50 [4]: 5.69 nM; Maximum mean fluorescence intensity [4]: 47500
6 |  |  |  |  | 1.43 | 0.05 | 0.06 | 2.05 | 0.07 | 0.27 | 0.04 | 0.04 | 0.05 | 0.08 | 0.06 | 0.05 | 2.59 | 0.3 | 0.06 | 0.05 | S009-F1.7.14 human-murine chimeric antibody (antibody, human IgG1, kappa, Chimeric IgG1/kappa) heavy: not shown light: QIVLTQSPAIMSASPGEKVTISCSASSSVSYMYWYQQKPGSSPKPWISRTSNLASGVPARFSGSGSGTSYSLTISSMEAEDAATYYCQQYHSYPPTLGAGTKLELKRTVAAPSVFIFPPSDEQLKSGTASVVCLLNNFYPREAKVQWKVDNALQSGNSQESVTEQDSKDSTYSLSSTLTLSKADYEKHKVYACEVTHQGLSSPVTKSFNRGEC | 
7 | 363 | no binding | 1.59 nM | 96300 |  |  |  |  |  |  |  |  |  |  |  |  |  |  |  |  | S009-F1.56.1 (antibody, human IgG1, kappa, V domains shown, human-murine chimeric antibody, human IgG1/kappa constant regions) VH: EVQLQQSGAEVVKPGASVKLSCTASGFNIRHTYMHWVKQRPEQGLEWIGRIDPANGNTEYDPKFQGKATITADTSSNTAYLQLSSLTSEDTAVYYCARDGWYIDVWGAGTTVTVSS VL: DIVMSQSPSSLAVSVGEKVTMSCKSSQSLLYSNNQKNYLAWYQQKPGQSPKLLIYWASTRESGVPDRFTGSGSGTDFTLTISSVKAEDLAVYYCQRYYSYPWTFGGGTKLEIKR | EC50 [3]: 0.67 nM; Maximum mean fluorescence intensity [3]: 11700; EC50 [4]: 0.79 nM; Maximum mean fluorescence intensity [4]: 43100
8 |  |  |  |  | 2.3 | 0.05 | 0.11 | 2.44 | 0.06 | 0.12 | 0.05 | 0.03 | 0.05 | 0.55 | 0.05 | 0.04 | 2.74 | 1.83 | 0.05 | 0.04 | S009-F1.56.1 human-murine chimeric antibody (antibody, human IgG1, kappa, V domains shown, Chimeric IgG1/kappa) VH: EVQLQQSGAEVVKPGASVKLSCTASGFNIRHTYMHWVKQRPEQGLEWIGRIDPANGNTEYDPKFQGKATITADTSSNTAYLQLSSLTSEDTAVYYCARDGWYIDVWGAGTTVTVSS VL: DIVMSQSPSSLAVSVGEKVTMSCKSSQSLLYSNNQKNYLAWYQQKPGQSPKLLIYWASTRESGVPDRFTGSGSGTDFTLTISSVKAEDLAVYYCQRYYSYPWTFGGGTKLEIKR | 
9 |  |  |  |  | 2.3 | 0.03 | 0.1 | 2.44 | 0.04 | 0.05 | 0.05 | 0.04 | 0.05 | 0.43 | 0.06 | 0.03 | 2.57 | 1.67 | 0.06 | 0.04 | S009-F1.25.10 human-murine chimeric antibody (antibody, human IgG1, kappa, V domains shown, Chimeric IgG1/kappa) VH: EVQLQQSGPELVKPGASLKISCKASGYSFTDYTMNWVKQSHGKNLEWIGLFNPYNGGISYNQKFKGKATLTVDKSSNTAYMELLSLTSDDSAVYFCARDGRGGFYAMDYWGQGTSVTVSS VL: DIQMTQTTSSLSASLGDRVTISCRASQDISIYLNWYQQKPDGPVKLLIYYTSRLHSGVPSRFSGSGSGTDFSLTISNLEQEDIATYFCQQGYTLPPWTFGGGTKLEIKR | 

From patent publication US20250250357A1 (NANJING ZAIMING PHARMACEUTICAL, published 2025)
